According to the supplement of paper PMC7125110:
± gives the standard error. For some of these results: Fewer inactive variants are shown than the library holds.

B1: glmS ribozyme (parent)
chain: AUAAAAGCGCCAGAACUACAGAAAUGUAGUUGACGAGGAGGAGGUUUAUCGAAUUUUCGGCGGAUGCCUCCAAA

How the values were obtained:
Conditions in all cases: with glucosamine-6-phosphate
[1] = variants of: B1; experiment: kcat; higher = faster cleavage; RNA array
Outline: (§1)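 Tracking of barcoded ribozyme variants used a hybridised Cy3 probe at 37 °C, after in situ transcription by E. coli RNA polymerase on sequenced MiSeq chips. The flowed solution held 40 μM to 10 mM glucosamine-6-phosphate in HEPES/KCl/Mg(OAc)2 buffer, and imaging ran over ~14 h. kobs was taken from exponential decay fits of normalised per-tile medians, and kcat and KM from weighted Michaelis–Menten fits.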

[2] = variants of: B1; experiment: KM; higher = weaker cofactor use; RNA array
Outline: as §1

[3] = variants of: B1; experiment: self-cleavage kobs at 640 uM GlcN6P; higher = faster cleavage; RNA array
Outline: as §1

[4] = variants of: B1; experiment: self-cleavage kobs at 2500 uM GlcN6P; higher = faster cleavage; RNA array
Outline: as §1

[5] = variants of: B1; experiment: self-cleavage kobs at 10000 uM GlcN6P; higher = faster cleavage; RNA array
Outline: as §1

[6] = variants of: B1; experiment: self-cleavage kobs at 160 uM GlcN6P; higher = faster cleavage; RNA array
Outline: as §1

[7] = variants of: B1; experiment: self-cleavage kobs at 40 uM GlcN6P; higher = faster cleavage; RNA array
Outline: as §1

Row | Variant | kcat [1] | KM [2] | self-cleavage kobs at 640 uM GlcN6P [3] | self-cleavage kobs at 2500 uM GlcN6P [4] | self-cleavage kobs at 10000 uM GlcN6P [5] | self-cleavage kobs at 160 uM GlcN6P [6] | self-cleavage kobs at 40 uM GlcN6P [7]
1 | A15U U45C | 0.000662 ± 6.5e-05 s⁻¹ | 5.87 ± 1 mM | 6.91e-05 ± 1.5e-05 s⁻¹ | 0.000187 ± 4.3e-05 s⁻¹ | 0.000419 ± 4.9e-05 s⁻¹ |  | 
2 | A6U G7A | < 1e-05 s⁻¹ |  | < 1e-05 s⁻¹ |  |  | < 1e-05 s⁻¹ | 
3 | U57A C68A | 2.64e-05 ± 5.2e-06 s⁻¹ |  |  |  |  |  | 
4 | C16A G66C | 6.9e-05 ± 1.7e-05 s⁻¹ |  |  |  | 2.41e-05 ± 1.1e-05 s⁻¹ |  | < 1e-05 s⁻¹
5 | G29U G59C | < 1e-05 s⁻¹ |  |  | < 1e-05 s⁻¹ | < 1e-05 s⁻¹ |  | < 1e-05 s⁻¹
6 | A14G A33U | 0.000136 ± 9.7e-06 s⁻¹ | 8.71 ± 1.3 mM |  | 3.08e-05 ± 1e-05 s⁻¹ | 7.29e-05 ± 7e-06 s⁻¹ |  | < 1e-05 s⁻¹
7 | G38A C71A | < 1e-05 s⁻¹ |  |  |  | < 1e-05 s⁻¹ |  | 
8 | U55A U65C | 0.000613 ± 6.7e-05 s⁻¹ | 1.16 ± 0.23 mM | 0.0002 ± 2.9e-05 s⁻¹ | 0.000471 ± 6.1e-05 s⁻¹ | 0.000505 ± 9.2e-05 s⁻¹ | 7.83e-05 ± 1.4e-05 s⁻¹ | 
9 | C11A A15U | 6.57e-05 ± 4.8e-06 s⁻¹ | 1.51 ± 0.38 mM |  | 3.75e-05 ± 1.7e-05 s⁻¹ | 5.85e-05 ± 1.7e-05 s⁻¹ |  | 
10 | A12G C68A | 2.58e-05 ± 7.3e-06 s⁻¹ |  |  | 3.36e-05 ± 9e-06 s⁻¹ | 1.95e-05 ± 7.6e-06 s⁻¹ |  | 
11 | A15U G66U | 0.000139 ± 1.2e-05 s⁻¹ | 0.717 ± 0.18 mM | 6.31e-05 ± 9.8e-06 s⁻¹ | 0.000153 ± 4.4e-05 s⁻¹ | 0.000127 ± 1.5e-05 s⁻¹ |  | 
12 | G35A U49C | < 1e-05 s⁻¹ |  | < 1e-05 s⁻¹ |  | < 1e-05 s⁻¹ |  | 
13 | C16A U46G C70G | 2.12e-05 ± 3.1e-06 s⁻¹ |  |  |  |  |  | 
14 | A15C C16A G37U C70U C71G | 1.25e-05 ± 2.5e-06 s⁻¹ |  |  |  |  |  | 
15 | A12C U45A A64U | 0.00036 ± 8.2e-05 s⁻¹ | 5.8 ± 2.5 mM | 2.84e-05 ± 1.2e-05 s⁻¹ | 0.000134 ± 3.1e-05 s⁻¹ | 0.000223 ± 3.2e-05 s⁻¹ |  | 
16 | G37C A53G | 3.88e-05 ± 1.1e-05 s⁻¹ |  |  | 5.73e-05 ± 1.6e-05 s⁻¹ | 3.11e-05 ± 1.1e-05 s⁻¹ |  | < 1e-05 s⁻¹
17 | U31G A52U G62U C67G | < 1e-05 s⁻¹ |  |  | < 1e-05 s⁻¹ | < 1e-05 s⁻¹ |  | < 1e-05 s⁻¹
18 | A52U U57A | 0.00351 ± 0.00067 s⁻¹ | 5.9 ± 1.5 mM | 0.000344 ± 6.8e-05 s⁻¹ | 0.00123 ± 0.00025 s⁻¹ | 0.00213 ± 0.00033 s⁻¹ | 9.27e-05 ± 1.9e-05 s⁻¹ | 
19 | A64G G66U | 0.00159 ± 7.8e-05 s⁻¹ | 1.21 ± 0.12 mM | 0.000588 ± 0.00016 s⁻¹ | 0.00102 ± 0.00034 s⁻¹ | 0.00143 ± 0.0003 s⁻¹ | 0.000178 ± 5.7e-05 s⁻¹ | 

Row | Variant | kcat [1] | KM [2] | self-cleavage kobs at 640 uM GlcN6P [3] | self-cleavage kobs at 2500 uM GlcN6P [4] | self-cleavage kobs at 10000 uM GlcN6P [5] | self-cleavage kobs at 160 uM GlcN6P [6] | self-cleavage kobs at 40 uM GlcN6P [7]
20 | U45A C67A C68G | 1.46e-05 ± 7.2e-06 s⁻¹ |  |  |  |  |  | 
21 | G40A C58U | 4.57e-05 ± 1.8e-05 s⁻¹ |  |  |  |  |  | 
22 | A12G C71A | 0.000639 ± 4.4e-05 s⁻¹ | 4.88 ± 0.5 mM | 7.45e-05 ± 1e-05 s⁻¹ | 0.000215 ± 3.9e-05 s⁻¹ | 0.00043 ± 5.9e-05 s⁻¹ |  | 
23 | A15C U54A | 0.00654 ± 0.0017 s⁻¹ | 1.93 ± 0.73 mM | 0.0012 ± 0.00025 s⁻¹ | 0.00329 ± 0.00066 s⁻¹ | 0.00638 ± 0.00097 s⁻¹ | 0.000559 ± 0.00011 s⁻¹ | 0.000164 ± 2.4e-05 s⁻¹
24 | C8U C50G | 0.000208 ± 1.2e-05 s⁻¹ | 0.031 ± 0.008 mM | 0.000188 ± 3.3e-05 s⁻¹ | 0.000229 ± 3.5e-05 s⁻¹ | 0.000178 ± 7.7e-05 s⁻¹ | 0.000167 ± 2.4e-05 s⁻¹ | 0.00012 ± 2e-05 s⁻¹
25 | G38A C67A | < 1e-05 s⁻¹ |  |  |  |  |  | < 1e-05 s⁻¹
26 | U45C A48C | < 1e-05 s⁻¹ |  |  |  |  | < 1e-05 s⁻¹ | 
27 | G29C A39G | 0.00594 ± 0.0022 s⁻¹ |  | 0.000768 ± 0.00012 s⁻¹ | 0.00223 ± 0.00037 s⁻¹ | 0.00525 ± 0.00064 s⁻¹ | 0.000305 ± 6.8e-05 s⁻¹ | 0.000107 ± 1.2e-05 s⁻¹
28 | A14U C50A U54G G62A C68U | 3.85e-05 ± 1.7e-05 s⁻¹ |  | 7.62e-05 ± 2.5e-05 s⁻¹ |  |  |  | 
29 | U30A G32U | 0.000735 ± 0.00018 s⁻¹ | 4.83 ± 1.7 mM | 7.63e-05 ± 1.5e-05 s⁻¹ | 0.000275 ± 4.2e-05 s⁻¹ | 0.000475 ± 9.5e-05 s⁻¹ | 3.89e-05 ± 1.7e-05 s⁻¹ | 
30 | U57A G66A | 0.000171 ± 2.8e-05 s⁻¹ | 4.04 ± 1.4 mM |  | 6.97e-05 ± 2.3e-05 s⁻¹ | 0.00012 ± 3.2e-05 s⁻¹ |  | 
31 | A12G G40U | 0.000365 ± 1.8e-05 s⁻¹ | 3.74 ± 0.35 mM | 5.37e-05 ± 6.7e-06 s⁻¹ | 0.000148 ± 1.3e-05 s⁻¹ | 0.000265 ± 1.9e-05 s⁻¹ |  | 
32 | A39C U57G | < 1e-05 s⁻¹ |  |  |  |  | < 1e-05 s⁻¹ | 
33 | A12G A14U G32U G60A G66U | < 1e-05 s⁻¹ |  |  |  | < 1e-05 s⁻¹ |  | 
34 | G44A G66A | 0.000681 ± 0.00022 s⁻¹ |  | 0.000259 ± 4.6e-05 s⁻¹ | 0.000848 ± 0.00022 s⁻¹ | 0.000527 ± 0.0001 s⁻¹ | 4.37e-05 ± 1.7e-05 s⁻¹ | 
35 | U56G A64G | 0.0177 ± 0.0051 s⁻¹ | 2.68 ± 1 mM | 0.00313 ± 0.00055 s⁻¹ | 0.00817 ± 0.0015 s⁻¹ | 0.0156 ± 0.0037 s⁻¹ | 0.000896 ± 0.00017 s⁻¹ | 0.000369 ± 6.8e-05 s⁻¹
36 | U55A C61U | 1.43e-05 ± 1.1e-06 s⁻¹ | 1.93 ± 0.52 mM |  |  |  |  | 
37 | A14G U46C | 0.0067 ± 0.0025 s⁻¹ |  | 0.00207 ± 0.00084 s⁻¹ | 0.00744 ± 0.0013 s⁻¹ | 0.00545 ± 0.002 s⁻¹ |  | 0.000504 ± 0.00011 s⁻¹
